Experimental data taken from patent publication US20260001928A1 (CORTERIA PHARMACEUTICALS, priority 2022, published 2026).
*1 amine or outer side, *2 acyl side, *3 side chain or, on linkers, in order; H or OH if unused. Side-chain parts run from the residue outwards. [ ]: non-standard residue; d: D form. The star is where a group is joined. C16 diacid = O=C(O)CCCCCCCCCCCCCCC(=O)*; γGlu = O=C(O)[C@H](CCC(=O)[*:2])N[*:1]; Pentanoyl = CCCCC(=O)*; Aib = CC(C)(N)C(=O)O

T1: CRF1R receptor (UniProt P34998 24-415, limits assumed)
T1 sequence (looked up): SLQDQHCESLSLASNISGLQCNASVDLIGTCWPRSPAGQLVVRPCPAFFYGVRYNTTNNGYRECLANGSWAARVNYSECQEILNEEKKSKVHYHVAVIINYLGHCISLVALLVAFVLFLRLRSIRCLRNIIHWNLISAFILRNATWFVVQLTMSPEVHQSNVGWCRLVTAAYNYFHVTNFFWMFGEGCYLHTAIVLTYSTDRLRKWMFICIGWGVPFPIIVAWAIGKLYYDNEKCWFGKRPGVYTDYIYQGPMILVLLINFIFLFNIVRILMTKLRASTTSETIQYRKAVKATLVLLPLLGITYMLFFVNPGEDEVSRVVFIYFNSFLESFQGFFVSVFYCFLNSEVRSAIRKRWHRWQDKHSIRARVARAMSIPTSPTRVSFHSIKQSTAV


What was measured:
CRF1R receptor = target: T1, CRF1R receptor; assay: cell-based or functional assay
[1] = target: human corticotropin-releasing factor 2a (CRF2a receptor) (human), Q13324; assay: cell-based or functional assay
Sequence of human corticotropin-releasing factor 2a (CRF2a receptor) (human), Q13324 (Q13324 20-411): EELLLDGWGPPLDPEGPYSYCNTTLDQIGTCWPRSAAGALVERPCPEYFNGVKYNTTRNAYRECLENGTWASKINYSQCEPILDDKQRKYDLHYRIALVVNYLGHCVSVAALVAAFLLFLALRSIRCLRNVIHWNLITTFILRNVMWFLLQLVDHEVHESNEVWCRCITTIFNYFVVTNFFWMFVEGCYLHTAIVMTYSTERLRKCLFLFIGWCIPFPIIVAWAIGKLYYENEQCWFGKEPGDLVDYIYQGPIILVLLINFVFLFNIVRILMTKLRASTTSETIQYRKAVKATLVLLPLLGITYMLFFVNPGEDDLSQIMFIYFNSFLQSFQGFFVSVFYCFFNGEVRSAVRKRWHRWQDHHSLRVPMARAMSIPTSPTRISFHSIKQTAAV

| Binder | EC50 (CRF1R receptor) [nM] | Emax (% I) (CRF1R receptor) [%] | EC50 [nM] (cAMP) [1] |
| --- | --- | --- | --- |
| Pentanoyl-VLSLD[dV]PIKLK([γGlu-C16 diacid])QILLKQERQKKQREQAEKNKQILEQV-NH2 (SMILES CCCCC(=O)N[C@H](C(=O)N[C@@H](CC(C)C)C(=O)N[C@@H](CO)C(=O)N[C@@H](CC(C)C)C(=O)N[C@@H](CC(=O)O)C(=O)N[C@@H](C(=O)N1CCC[C@H]1C(=O)N[C@H](C(=O)N[C@@H](CCCCN)C(=O)N[C@@H](CC(C)C)C(=O)N[C@@H](CCCCNC(=O)CC[C@H](NC(=O)CCCCCCCCCCCCCCC(=O)O)C(=O)O)C(=O)N[C@@H](CCC(N)=O)C(=O)N[C@H](C(=O)N[C@@H](CC(C)C)C(=O)N[C@@H](CC(C)C)C(=O)N[C@@H](CCCCN)C(=O)N[C@@H](CCC(N)=O)C(=O)N[C@@H](CCC(=O)O)C(=O)N[C@@H](CCCNC(=N)N)C(=O)N[C@@H](CCC(N)=O)C(=O)N[C@@H](CCCCN)C(=O)N[C@@H](CCCCN)C(=O)N[C@@H](CCC(N)=O)C(=O)N[C@@H](CCCNC(=N)N)C(=O)N[C@@H](CCC(=O)O)C(=O)N[C@@H](CCC(N)=O)C(=O)N[C@@H](C)C(=O)N[C@@H](CCC(=O)O)C(=O)N[C@@H](CCCCN)C(=O)N[C@@H](CC(N)=O)C(=O)N[C@@H](CCCCN)C(=O)N[C@@H](CCC(N)=O)C(=O)N[C@H](C(=O)N[C@@H](CC(C)C)C(=O)N[C@@H](CCC(=O)O)C(=O)N[C@@H](CCC(N)=O)C(=O)N[C@H](C(N)=O)C(C)C)[C@@H](C)CC)[C@@H](C)CC)[C@@H](C)CC)C(C)C)C(C)C) [SEQ ID NO 8] | 186 | 50 | 0.14 |
| Ac-IVLSLD[dV]PIKLK([γGlu-C16 diacid])KILLEQEKQAKQREQAETN[Aib]QILAQV-NH2 (SMILES CC[C@H](C)[C@H](NC(C)=O)C(=O)N[C@H](C(=O)N[C@@H](CC(C)C)C(=O)N[C@@H](CO)C(=O)N[C@@H](CC(C)C)C(=O)N[C@@H](CC(=O)O)C(=O)N[C@@H](C(=O)N1CCC[C@H]1C(=O)N[C@H](C(=O)N[C@@H](CCCCN)C(=O)N[C@@H](CC(C)C)C(=O)N[C@@H](CCCCNC(=O)CC[C@H](NC(=O)CCCCCCCCCCCCCCC(=O)O)C(=O)O)C(=O)N[C@@H](CCCCN)C(=O)N[C@H](C(=O)N[C@@H](CC(C)C)C(=O)N[C@@H](CC(C)C)C(=O)N[C@@H](CCC(=O)O)C(=O)N[C@@H](CCC(N)=O)C(=O)N[C@@H](CCC(=O)O)C(=O)N[C@@H](CCCCN)C(=O)N[C@@H](CCC(N)=O)C(=O)N[C@@H](C)C(=O)N[C@@H](CCCCN)C(=O)N[C@@H](CCC(N)=O)C(=O)N[C@@H](CCCNC(=N)N)C(=O)N[C@@H](CCC(=O)O)C(=O)N[C@@H](CCC(N)=O)C(=O)N[C@@H](C)C(=O)N[C@@H](CCC(=O)O)C(=O)N[C@H](C(=O)N[C@@H](CC(N)=O)C(=O)NC(C)(C)C(=O)N[C@@H](CCC(N)=O)C(=O)N[C@H](C(=O)N[C@@H](CC(C)C)C(=O)N[C@@H](C)C(=O)N[C@@H](CCC(N)=O)C(=O)N[C@H](C(N)=O)C(C)C)[C@@H](C)CC)[C@@H](C)O)[C@@H](C)CC)[C@@H](C)CC)C(C)C)C(C)C) [SEQ ID NO 166] |  | 5 | 0.77 |
| Ac-IVLSLD[dV]PIKLK([γGlu-C16 diacid])AILLEQEKQKKQREQAETN[Aib]QILAQV-NH2 (SMILES CC[C@H](C)[C@H](NC(C)=O)C(=O)N[C@H](C(=O)N[C@@H](CC(C)C)C(=O)N[C@@H](CO)C(=O)N[C@@H](CC(C)C)C(=O)N[C@@H](CC(=O)O)C(=O)N[C@@H](C(=O)N1CCC[C@H]1C(=O)N[C@H](C(=O)N[C@@H](CCCCN)C(=O)N[C@@H](CC(C)C)C(=O)N[C@@H](CCCCNC(=O)CC[C@H](NC(=O)CCCCCCCCCCCCCCC(=O)O)C(=O)O)C(=O)N[C@@H](C)C(=O)N[C@H](C(=O)N[C@@H](CC(C)C)C(=O)N[C@@H](CC(C)C)C(=O)N[C@@H](CCC(=O)O)C(=O)N[C@@H](CCC(N)=O)C(=O)N[C@@H](CCC(=O)O)C(=O)N[C@@H](CCCCN)C(=O)N[C@@H](CCC(N)=O)C(=O)N[C@@H](CCCCN)C(=O)N[C@@H](CCCCN)C(=O)N[C@@H](CCC(N)=O)C(=O)N[C@@H](CCCNC(=N)N)C(=O)N[C@@H](CCC(=O)O)C(=O)N[C@@H](CCC(N)=O)C(=O)N[C@@H](C)C(=O)N[C@@H](CCC(=O)O)C(=O)N[C@H](C(=O)N[C@@H](CC(N)=O)C(=O)NC(C)(C)C(=O)N[C@@H](CCC(N)=O)C(=O)N[C@H](C(=O)N[C@@H](CC(C)C)C(=O)N[C@@H](C)C(=O)N[C@@H](CCC(N)=O)C(=O)N[C@H](C(N)=O)C(C)C)[C@@H](C)CC)[C@@H](C)O)[C@@H](C)CC)[C@@H](C)CC)C(C)C)C(C)C) [SEQ ID NO 164] |  | 14 | 2.43 |

Further lines, results first:

| EC50 (CRF1R receptor) [nM] | Emax (% I) (CRF1R receptor) [%] | EC50 [nM] (cAMP) [1] | Binder |
| --- | --- | --- | --- |
|  | 14 | 0.64 | Ac-IVLSLD[dV]PIKLK([γGlu-C16 diacid])KILLEQEAQKKQREQAETN[Aib]QILAQV-NH2 (SMILES CC[C@H](C)[C@H](NC(C)=O)C(=O)N[C@H](C(=O)N[C@@H](CC(C)C)C(=O)N[C@@H](CO)C(=O)N[C@@H](CC(C)C)C(=O)N[C@@H](CC(=O)O)C(=O)N[C@@H](C(=O)N1CCC[C@H]1C(=O)N[C@H](C(=O)N[C@@H](CCCCN)C(=O)N[C@@H](CC(C)C)C(=O)N[C@@H](CCCCNC(=O)CC[C@H](NC(=O)CCCCCCCCCCCCCCC(=O)O)C(=O)O)C(=O)N[C@@H](CCCCN)C(=O)N[C@H](C(=O)N[C@@H](CC(C)C)C(=O)N[C@@H](CC(C)C)C(=O)N[C@@H](CCC(=O)O)C(=O)N[C@@H](CCC(N)=O)C(=O)N[C@@H](CCC(=O)O)C(=O)N[C@@H](C)C(=O)N[C@@H](CCC(N)=O)C(=O)N[C@@H](CCCCN)C(=O)N[C@@H](CCCCN)C(=O)N[C@@H](CCC(N)=O)C(=O)N[C@@H](CCCNC(=N)N)C(=O)N[C@@H](CCC(=O)O)C(=O)N[C@@H](CCC(N)=O)C(=O)N[C@@H](C)C(=O)N[C@@H](CCC(=O)O)C(=O)N[C@H](C(=O)N[C@@H](CC(N)=O)C(=O)NC(C)(C)C(=O)N[C@@H](CCC(N)=O)C(=O)N[C@H](C(=O)N[C@@H](CC(C)C)C(=O)N[C@@H](C)C(=O)N[C@@H](CCC(N)=O)C(=O)N[C@H](C(N)=O)C(C)C)[C@@H](C)CC)[C@@H](C)O)[C@@H](C)CC)[C@@H](C)CC)C(C)C)C(C)C) [SEQ ID NO 165] |
|  | 3 | 0.8 | Ac-IVLSLD[dV]PIKLK([γGlu-C16 diacid])KILLEQEKQKEQREQAETN[Aib]QILAQV-NH2 (SMILES CC[C@H](C)[C@H](NC(C)=O)C(=O)N[C@H](C(=O)N[C@@H](CC(C)C)C(=O)N[C@@H](CO)C(=O)N[C@@H](CC(C)C)C(=O)N[C@@H](CC(=O)O)C(=O)N[C@@H](C(=O)N1CCC[C@H]1C(=O)N[C@H](C(=O)N[C@@H](CCCCN)C(=O)N[C@@H](CC(C)C)C(=O)N[C@@H](CCCCNC(=O)CC[C@H](NC(=O)CCCCCCCCCCCCCCC(=O)O)C(=O)O)C(=O)N[C@@H](CCCCN)C(=O)N[C@H](C(=O)N[C@@H](CC(C)C)C(=O)N[C@@H](CC(C)C)C(=O)N[C@@H](CCC(=O)O)C(=O)N[C@@H](CCC(N)=O)C(=O)N[C@@H](CCC(=O)O)C(=O)N[C@@H](CCCCN)C(=O)N[C@@H](CCC(N)=O)C(=O)N[C@@H](CCCCN)C(=O)N[C@@H](CCC(=O)O)C(=O)N[C@@H](CCC(N)=O)C(=O)N[C@@H](CCCNC(=N)N)C(=O)N[C@@H](CCC(=O)O)C(=O)N[C@@H](CCC(N)=O)C(=O)N[C@@H](C)C(=O)N[C@@H](CCC(=O)O)C(=O)N[C@H](C(=O)N[C@@H](CC(N)=O)C(=O)NC(C)(C)C(=O)N[C@@H](CCC(N)=O)C(=O)N[C@H](C(=O)N[C@@H](CC(C)C)C(=O)N[C@@H](C)C(=O)N[C@@H](CCC(N)=O)C(=O)N[C@H](C(N)=O)C(C)C)[C@@H](C)CC)[C@@H](C)O)[C@@H](C)CC)[C@@H](C)CC)C(C)C)C(C)C) [SEQ ID NO 168] |
|  | 7 | 1.15 | Ac-IVLSLD[dV]PIKLK([γGlu-C16 diacid])KILLEQEKQKKQAEQAETN[Aib]QILAQV-NH2 (SMILES CC[C@H](C)[C@H](NC(C)=O)C(=O)N[C@H](C(=O)N[C@@H](CC(C)C)C(=O)N[C@@H](CO)C(=O)N[C@@H](CC(C)C)C(=O)N[C@@H](CC(=O)O)C(=O)N[C@@H](C(=O)N1CCC[C@H]1C(=O)N[C@H](C(=O)N[C@@H](CCCCN)C(=O)N[C@@H](CC(C)C)C(=O)N[C@@H](CCCCNC(=O)CC[C@H](NC(=O)CCCCCCCCCCCCCCC(=O)O)C(=O)O)C(=O)N[C@@H](CCCCN)C(=O)N[C@H](C(=O)N[C@@H](CC(C)C)C(=O)N[C@@H](CC(C)C)C(=O)N[C@@H](CCC(=O)O)C(=O)N[C@@H](CCC(N)=O)C(=O)N[C@@H](CCC(=O)O)C(=O)N[C@@H](CCCCN)C(=O)N[C@@H](CCC(N)=O)C(=O)N[C@@H](CCCCN)C(=O)N[C@@H](CCCCN)C(=O)N[C@@H](CCC(N)=O)C(=O)N[C@@H](C)C(=O)N[C@@H](CCC(=O)O)C(=O)N[C@@H](CCC(N)=O)C(=O)N[C@@H](C)C(=O)N[C@@H](CCC(=O)O)C(=O)N[C@H](C(=O)N[C@@H](CC(N)=O)C(=O)NC(C)(C)C(=O)N[C@@H](CCC(N)=O)C(=O)N[C@H](C(=O)N[C@@H](CC(C)C)C(=O)N[C@@H](C)C(=O)N[C@@H](CCC(N)=O)C(=O)N[C@H](C(N)=O)C(C)C)[C@@H](C)CC)[C@@H](C)O)[C@@H](C)CC)[C@@H](C)CC)C(C)C)C(C)C) [SEQ ID NO 167] |
